The source of these data is patent US20250313645A1 (COMPASS THERAPEUTICS, published 2025).

For experiment [1], the target named is T1, Fc-, mouse IgG2a-, or His-tagged human CD137 (human, UniProt Q07011 24-186).
T1 construct: Sources were ACRO Biosystems, Sino Biological and internal; not shown: Fc, mouse IgG2a or His tag
Nature of the experiment: BLI (Octet HTX), tagged CD137 on biosensor, Fab 0-500 nM in solution, global 1:1 fit, apparent KD; lower end of the printed range 50-70 nM. How it is done:
(§1) The anti-CD137 antibodies were further tested for their binding to CD137 from multiple species. Specifically, mAb1, mAb8 and mAb10 were analyzed for binding to human, mouse, cynomolgus and canine CD137. Kinetic experiments were performed on OCTET HTX (ForteBio) in kinetics buffer (1×PBS, pH 7.4, 0.1 mg/ml BSA, and 0.002% Tween 20). Fc-, mouse IgG2a-, or His-tagged CD137 (human, mouse, cyno or canine) were loaded for 5 minutes on pre-hydrated biosensors, AHC, AMC or NTA respectively. The sensors were then dipped into Fabs (0, 5.12, 12.8, 32, 80, 200 and 500 nM) for 5 minutes of association, following by 15 minutes of dissociation. Results were analyzed with ForteBio Data Analysis 9.0 and fit globally to a 1:1 binding model to determine the apparent KD. KD for human and mouse CD137 binding were confirmed by using antigens from different sources (ACRO Biosystems, Sino Biological and internal).
On the technique in general: Biolayer interferometry detects binding as a change in optical thickness at a sensor tip.

Experiment [2] has as its target T1, Fc-, mouse IgG2a-, or His-tagged human …. Nature of the experiment: BLI (Octet HTX), tagged CD137 on biosensor, Fab 0-500 nM in solution, global 1:1 fit, apparent KD; upper end of the printed range 50-70 nM. Here is the method: as §1

Bounds are passed on as bounds.

B1: mAb1 Fab (Fab, V domains shown)
VH: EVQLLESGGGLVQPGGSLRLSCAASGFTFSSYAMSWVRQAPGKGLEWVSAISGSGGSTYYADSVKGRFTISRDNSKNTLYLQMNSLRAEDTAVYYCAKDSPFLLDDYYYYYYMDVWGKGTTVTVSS
VL: DIQMTQSPSSVSASVGDRVTITCRASQGISSWLAWYQQKPGKAPKLLIYAASSLQSGVPSRFSGSGSGTDFTLTISSLQPEDFATYYCQQGHLFPITFGGGTKVEIK
Regarding B1, the Kd is no less than 50 nM in experiment [1] and no more than 70 nM in experiment [2].
